Source: patent US20170369592A1, “NOVEL ANTI-FIBROBLAST ACTIVATION PROTEIN (FAP) ANTIBODIES AND USES DERIVED THEREOF” (Mabimmune Diagnostics AG, priority 2015, published 2017)
One block for each molecule: values may come before it.

What was measured:
[1] = tested on: metastatic colorectal cancer; conditions: unconjugated antibody, early phase II trial; cited from earlier work
[2] = human, in vivo; cited from earlier work
FAP = target: T1, FAP (Homo sapiens, UniProt Q12884); conditions: cited from earlier work
T1 sequence (Q12884 1-760): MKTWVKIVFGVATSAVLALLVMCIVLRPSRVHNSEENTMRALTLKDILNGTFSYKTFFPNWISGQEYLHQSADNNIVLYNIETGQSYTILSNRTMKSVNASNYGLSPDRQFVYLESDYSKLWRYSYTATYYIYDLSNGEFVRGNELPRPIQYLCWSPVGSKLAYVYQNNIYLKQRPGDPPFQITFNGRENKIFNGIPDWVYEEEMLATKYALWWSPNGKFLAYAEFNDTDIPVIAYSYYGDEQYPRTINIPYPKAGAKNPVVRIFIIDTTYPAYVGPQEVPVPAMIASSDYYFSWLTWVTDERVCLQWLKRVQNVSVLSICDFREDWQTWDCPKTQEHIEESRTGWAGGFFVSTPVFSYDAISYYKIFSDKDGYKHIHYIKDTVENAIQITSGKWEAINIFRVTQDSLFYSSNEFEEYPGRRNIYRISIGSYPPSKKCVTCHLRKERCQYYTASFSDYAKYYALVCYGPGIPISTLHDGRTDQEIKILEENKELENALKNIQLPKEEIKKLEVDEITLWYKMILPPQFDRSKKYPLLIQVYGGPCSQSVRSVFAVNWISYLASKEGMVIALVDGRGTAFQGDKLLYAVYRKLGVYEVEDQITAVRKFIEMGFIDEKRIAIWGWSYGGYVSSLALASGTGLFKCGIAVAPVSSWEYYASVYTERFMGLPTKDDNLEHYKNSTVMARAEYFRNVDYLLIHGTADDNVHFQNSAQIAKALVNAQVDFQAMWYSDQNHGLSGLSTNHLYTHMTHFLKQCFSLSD

captured FAP (sFAP) = target: T2, captured FAP (sFAP) (Homo sapiens, UniProt Q12884); assay: Capture ELISA, FAP captured via his-tag with coated anti-His antibody; assay type: binding; conditions: non-linear regression
T2 sequence (Q12884 1-760): T1 sequence (Q12884 1-760)
Experimental: (§1) ELISA assays were performed with varying antibody concentrations to validate the binding of the exemplary antibodies of the present invention to FAP and to be able to determine their half maximal effective concentration (EC50). For the exemplary recombinant human NI-206.82C2, NI-206.59B4, NI-206.22F7, NI-206.27E8, NI-206.12G4 and NI-206.17A6 antibodies, 96-well microplates (Costar, Corning, USA) were coated with FAP, with a mixture of the 3 peptides or with BSA (Sigma-Aldrich, Buchs, Switzerland) diluted to a concentration of 5 μg/ml in carbonate ELISA coating buffer (15 mM Na2CO3, 35 mM NaHCO3, pH 9.4) for the direct ELISA. For the capture ELISA, the microplates were coated with mouse anti-His monoclonal antibody (Clontech) diluted to a concentration of 3 μg/ml in PBS, the plates were then blocked, FAP or BSA were diluted to a concentration of 2 μg/ml in PBS and added to the plates to be captured. The binding efficiency of the antibodies was then tested. The exemplary NI-206.82C2 antibody specifically and strongly binds to the captured FAP and less efficiently to the directly coated FAP. The exemplary NI-206.59B4 antibody specifically, strongly and similarly binds to the captured FAP and to the directly coated FAP.
(§2) The EC50 values were estimated by a non-linear regression using GraphPad Prism (San Diego, USA) software. […] The binding of NI-206.12G4 towards sFAP was not tested.

[3] = target: T3, directly coated FAP (FAP) (Homo sapiens, UniProt Q12884); assay: Direct ELISA, FAP directly coated; assay type: binding; conditions: non-linear regression
T3 sequence (Q12884 1-760): T1 sequence (Q12884 1-760)
Experimental: as §1, §2

Molecule: Sibrotuzumab: a humanized version of the F19 antibody that specifically binds to human FAP
efficacy in inhibiting tumor progression [1]: lack of efficacy | patients with a change in pharmacokinetics and reduced tumor uptake [2]: 4 of 26 | inhibition of FAP (FAP): not inhibitory

EC50, binding to captured FAP (sFAP) (captured FAP (sFAP)): did not show any binding | EC50, binding to directly coated FAP (FAP) [3]: did not show any binding
B1: NI-206.22F7: recombinant human-derived monoclonal anti-FAP antibody, variable regions in FIG. 1 (antibody, V domains shown)
VH: EVQLVETGGGVVQPGRSLRLSCAASGFSFSTHGMYWVRQPPGKGLEWVAVISYDGSDKKYADSVKGRFTISRDNSKNTVYLEMSSVRAEDTALYYCFCRRDAFDLWGQGTMVTVSS
VL: SYVLTQPPSVSVSPGQTARITCSGDALPKKYAYWYQQKSGQAPVLVIYEDTKRPSGIPERFSGSSSGTMATLTISGAQVEDEADYYCYSTDSSGNYWVFGGGTEVTVL
